In test [1] the target is human claudin 9 (CLDN9) (human) (UniProt O95484). Description: flow cytometry, CHOK1/human CLDN9-GFP cells.
Test [2] concerns the target mouse CLDN6 (mouse) (UniProt Q9Z262). Briefly: flow cytometry, CHOK1/mouse CLDN6-GFP cells. In general terms: A flow cytometer gives signals particle by particle.
Test [3] addresses human claudin 6 (CLDN6) (human) (UniProt P56747). Briefly: flow cytometry, PA-1 cells (endogenous CLDN6).
Test [4] concerns the target cyno CLDN6 (cyno). Description: flow cytometry, CHOK1/Cyno CLDN6-GFP cells.
The target in test [5] is human claudin 6 (CLDN6) (human) (UniProt P56747). Briefly: flow cytometry, CHOK1/human CLDN6-GFP cells.
Chain of human claudin 6 (CLDN6) (human) (P56747 whole entry): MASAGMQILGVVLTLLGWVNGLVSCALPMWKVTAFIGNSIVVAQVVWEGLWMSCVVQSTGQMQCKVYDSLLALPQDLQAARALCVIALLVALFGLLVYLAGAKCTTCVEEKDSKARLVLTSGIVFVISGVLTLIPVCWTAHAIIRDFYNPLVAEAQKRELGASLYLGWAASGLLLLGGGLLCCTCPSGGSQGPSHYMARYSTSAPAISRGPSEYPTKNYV

Chain of mouse CLDN6 (mouse) (Q9Z262 whole entry): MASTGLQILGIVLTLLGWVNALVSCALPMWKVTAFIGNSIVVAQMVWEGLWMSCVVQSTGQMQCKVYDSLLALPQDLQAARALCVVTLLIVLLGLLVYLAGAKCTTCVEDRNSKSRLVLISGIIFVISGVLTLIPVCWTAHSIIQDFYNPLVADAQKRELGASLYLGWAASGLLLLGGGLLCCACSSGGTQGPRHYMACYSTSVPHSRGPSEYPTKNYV
Chain of human claudin 9 (CLDN9) (human) (O95484 whole entry): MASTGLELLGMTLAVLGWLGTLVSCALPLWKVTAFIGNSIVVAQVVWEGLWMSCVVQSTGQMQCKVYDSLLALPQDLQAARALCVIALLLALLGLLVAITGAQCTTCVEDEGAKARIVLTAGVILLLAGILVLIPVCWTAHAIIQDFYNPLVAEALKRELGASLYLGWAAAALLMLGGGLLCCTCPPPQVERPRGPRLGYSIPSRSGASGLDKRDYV

As for Human IgG1 isotype Ctrl. (antibody), the Emax (MFI) is 26.9 MFI in test [1]; 41.8 MFI in test [2]; 34 MFI in test [3]; 225 MFI in test [4]; 31.1 MFI in test [5].
